Source: article PMC3143299 (Journal of molecular biology, 2011)
Where “and” joins values, the source holds several entries; their conditions need not be identical. Equal values may be shown once.

How the values were obtained:
[1] = biological target: actin purified from rabbit skeletal muscle (F-actin) (rabbit, UniProt P68135 1-377); experiment: co-sedimentation
cross-linking = biological target: the molecule itself; experiment: cross-linking

B1: recombinant full-length human FRG1 (His-tagged) (natural protein)
chain: not shown
[1]
  Kd: 160 ± 30 nM
  stoichiometry N: 2 FRG1 per actin monomer
cross-linking
  stoichiometry N: 2 and 4
